Reference: the supplement of paper PMC9112550, “Optimization of the antimicrobial peptide Bac7 by deep mutational scanning” (BMC Biology, 2022)

Tested on: Escherichia coli TOP10
Assay: shrunken log2 fold change of peptide-encoding DNA abundance (4.5 h post-induction vs induction); higher = less antimicrobial activity (less host growth inhibition)
Details: time post-induction: 4.5 h; library: site-saturation at positions 5, 18, 19, 20
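Note: peptides expressed intracellularly from a pBAD plasmid library in pooled LB shake-flask culture, induced with 0.3% L-arabinose, DNA abundance read by NGS, three biological replicates, DESeq2 with apeglm shrinkage.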

Sequence	shrunken log2 fold change
RRIRSRPPRLPRPRPRPFACPRP	-0.655
RRIRERPPRLPRPRPRPPMEPRP	-0.0809
RRIRWRPPRLPRPRPRPGCNPRP	-0.0626
RRIRRRPPRLPRPRPRPLDRPRP	-0.00997
RRIRERPPRLPRPRPRPNRGPRP	-0.00351
RRIRSRPPRLPRPRPRPKFWPRP	0.759
RRIRYRPPRLPRPRPRPHSSPRP	-0.207
RRIRFRPPRLPRPRPRPTGVPRP	0.123
RRIRDRPPRLPRPRPRPSGEPRP	0.0799
RRIRQRPPRLPRPRPRPKPSPRP	0.159
RRIRYRPPRLPRPRPRPNYGPRP	-0.0594
RRIRLRPPRLPRPRPRPPDPPRP	0.584
RRIRQRPPRLPRPRPRPPEAPRP	0.243
RRIRHRPPRLPRPRPRPAFKPRP	-0.0994
RRIRDRPPRLPRPRPRPSKHPRP	-0.263
RRIRGRPPRLPRPRPRPELLPRP	0.334
RRIRQRPPRLPRPRPRPEPVPRP	0.0323
RRIRSRPPRLPRPRPRPGNTPRP	-0.472
RRIRNRPPRLPRPRPRPFSAPRP	-0.264
RRIRTRPPRLPRPRPRPHMFPRP	-0.0142
RRIRKRPPRLPRPRPRPFRYPRP	-0.0832
RRIRKRPPRLPRPRPRPMFTPRP	-0.0707
RRIRVRPPRLPRPRPRPAAGPRP	0.154
RRIRRRPPRLPRPRPRPRYMPRP	-0.378
RRIRPRPPRLPRPRPRPAAGPRP	0.287

Sequence	shrunken log2 fold change
RRIRRRPPRLPRPRPRPCKNPRP	0.0778
RRIRMRPPRLPRPRPRPNQTPRP	-0.0789
RRIRLRPPRLPRPRPRPPSLPRP	0.0267
RRIRDRPPRLPRPRPRPDLSPRP	0.0253
RRIRYRPPRLPRPRPRPNMEPRP	-0.618
RRIRLRPPRLPRPRPRPKAFPRP	0.0112
RRIRQRPPRLPRPRPRPKLRPRP	-0.0665
RRIRNRPPRLPRPRPRPPNQPRP	-0.0523
RRIRDRPPRLPRPRPRPHIDPRP	-0.0782
RRIRFRPPRLPRPRPRPWQQPRP	-0.104
RRIRTRPPRLPRPRPRPDIMPRP	-0.624
RRIRRRPPRLPRPRPRPWFIPRP	0.0648
RRIRNRPPRLPRPRPRPMRWPRP	0.892
RRIRPRPPRLPRPRPRPTKTPRP	0.132
RRIRIRPPRLPRPRPRPAKTPRP	0.0509
RRIRNRPPRLPRPRPRPWCLPRP	-0.472
RRIRRRPPRLPRPRPRPSYQPRP	-0.141
RRIRMRPPRLPRPRPRPSDHPRP	0.386
RRIRGRPPRLPRPRPRPKCGPRP	0.814
RRIRPRPPRLPRPRPRPPEFPRP	-0.122
RRIRQRPPRLPRPRPRPHAEPRP	-0.0176
RRIRQRPPRLPRPRPRPKPGPRP	0.285
RRIRNRPPRLPRPRPRPVWVPRP	0.0909
RRIRVRPPRLPRPRPRPAGLPRP	0.192
RRIRYRPPRLPRPRPRPMMWPRP	0.00408

Sequence	shrunken log2 fold change
RRIRLRPPRLPRPRPRPNGLPRP	-0.0171
RRIRTRPPRLPRPRPRPGCDPRP	0.256
RRIRQRPPRLPRPRPRPFKTPRP	-0.0381
RRIRDRPPRLPRPRPRPTRQPRP	0.228
RRIRCRPPRLPRPRPRPMWMPRP	0.174
RRIRQRPPRLPRPRPRPSRDPRP	-0.141
RRIRQRPPRLPRPRPRPTGHPRP	0.00113
RRIRLRPPRLPRPRPRPYDVPRP	-0.366
RRIRYRPPRLPRPRPRPEYSPRP	-0.0605
RRIRARPPRLPRPRPRPDHGPRP	-0.144
RRIRQRPPRLPRPRPRPSAWPRP	0.19
RRIRTRPPRLPRPRPRPQADPRP	-0.297
RRIRPRPPRLPRPRPRPIIVPRP	-0.178
RRIRQRPPRLPRPRPRPHLGPRP	-0.00552
RRIRRRPPRLPRPRPRPFMFPRP	0.234
RRIRTRPPRLPRPRPRPPSVPRP	0.352
RRIRCRPPRLPRPRPRPHHFPRP	-0.219
RRIRWRPPRLPRPRPRPYPFPRP	-0.0811
RRIRCRPPRLPRPRPRPHQYPRP	-0.05
RRIRVRPPRLPRPRPRPALAPRP	0.484
RRIRHRPPRLPRPRPRPASDPRP	-0.0278
RRIRDRPPRLPRPRPRPPALPRP	0.239
RRIRSRPPRLPRPRPRPLSAPRP	0.234
RRIRWRPPRLPRPRPRPGRTPRP	0.0519
RRIRHRPPRLPRPRPRPAWFPRP	0.211

Sequence	shrunken log2 fold change
RRIRYRPPRLPRPRPRPTPLPRP	0.0136
RRIRIRPPRLPRPRPRPADEPRP	-0.08
RRIRGRPPRLPRPRPRPNFKPRP	0.142
RRIRYRPPRLPRPRPRPFIWPRP	-0.2
RRIRERPPRLPRPRPRPFKEPRP	-0.346
RRIRQRPPRLPRPRPRPGAWPRP	0.256
RRIRWRPPRLPRPRPRPPWFPRP	0.218
RRIRPRPPRLPRPRPRPQGLPRP	-0.122
RRIRTRPPRLPRPRPRPKMLPRP	-0.204
RRIRQRPPRLPRPRPRPKWCPRP	-0.0936
RRIRGRPPRLPRPRPRPCMVPRP	0.304
RRIRVRPPRLPRPRPRPLAMPRP	0.209
RRIRPRPPRLPRPRPRPKKHPRP	-0.0812
RRIRARPPRLPRPRPRPYIGPRP	0.00388
RRIRERPPRLPRPRPRPSCAPRP	-0.173
RRIRYRPPRLPRPRPRPLYAPRP	-1.49
RRIRQRPPRLPRPRPRPHVEPRP	-0.00703
RRIRKRPPRLPRPRPRPEYDPRP	1.13
RRIRKRPPRLPRPRPRPVKRPRP	0.0121
RRIRNRPPRLPRPRPRPGSGPRP	0.179
RRIRRRPPRLPRPRPRPAEPPRP	0.723
RRIRSRPPRLPRPRPRPGNWPRP	-0.0906
RRIRDRPPRLPRPRPRPMTEPRP	0.0462
RRIRMRPPRLPRPRPRPSAFPRP	1.26
RRIRSRPPRLPRPRPRPWQVPRP	0.00514

Sequence	shrunken log2 fold change
RRIRPRPPRLPRPRPRPGSEPRP	0.0814
RRIRIRPPRLPRPRPRPARFPRP	-0.0256
RRIRWRPPRLPRPRPRPDDQPRP	-0.0297
RRIRDRPPRLPRPRPRPERIPRP	-0.0322
RRIRGRPPRLPRPRPRPIGSPRP	0.45
RRIRPRPPRLPRPRPRPKCPPRP	0.131
RRIRPRPPRLPRPRPRPYSYPRP	-0.228
RRIRGRPPRLPRPRPRPNTPPRP	0.237
RRIRCRPPRLPRPRPRPYCAPRP	-0.642
RRIRYRPPRLPRPRPRPHYMPRP	-1.45
RRIRFRPPRLPRPRPRPNFKPRP	-0.222
RRIRMRPPRLPRPRPRPEESPRP	0.113
RRIRHRPPRLPRPRPRPHYPPRP	-0.208
RRIRWRPPRLPRPRPRPNREPRP	-0.0677
RRIRVRPPRLPRPRPRPPCIPRP	-0.00689
RRIRNRPPRLPRPRPRPQRAPRP	0.0993
RRIRDRPPRLPRPRPRPIMCPRP	-0.0425
RRIRNRPPRLPRPRPRPCYMPRP	0.0787
RRIRARPPRLPRPRPRPAAQPRP	0.916
RRIRPRPPRLPRPRPRPAPCPRP	0.236
RRIRFRPPRLPRPRPRPCGDPRP	-0.01
RRIRSRPPRLPRPRPRPWWCPRP	0.0769
RRIRNRPPRLPRPRPRPQDNPRP	0.0553
RRIRFRPPRLPRPRPRPMTVPRP	-0.463
RRIRDRPPRLPRPRPRPFIYPRP	-0.115

Sequence	shrunken log2 fold change
RRIRSRPPRLPRPRPRPRCNPRP	0.124
RRIRNRPPRLPRPRPRPIHQPRP	-0.189
RRIRYRPPRLPRPRPRPNMLPRP	-1.22
RRIRDRPPRLPRPRPRPPTAPRP	0.0444
RRIRLRPPRLPRPRPRPFPGPRP	0.143
RRIRDRPPRLPRPRPRPHQFPRP	-0.282
RRIRMRPPRLPRPRPRPPPTPRP	1.97
RRIRYRPPRLPRPRPRPYIYPRP	-2.06
RRIRKRPPRLPRPRPRPATFPRP	-0.0215
RRIRPRPPRLPRPRPRPSWAPRP	0.0666
RRIRWRPPRLPRPRPRPFGRPRP	-0.0754
RRIRSRPPRLPRPRPRPEKWPRP	0.0431
RRIRFRPPRLPRPRPRPTWKPRP	0.32
RRIRLRPPRLPRPRPRPALEPRP	0.155
RRIRERPPRLPRPRPRPRESPRP	-0.329
RRIRMRPPRLPRPRPRPIKAPRP	0.0335
RRIRMRPPRLPRPRPRPCCEPRP	0.192
RRIRIRPPRLPRPRPRPPHWPRP	0.0943
RRIRYRPPRLPRPRPRPQEVPRP	0.013
RRIRYRPPRLPRPRPRPGPDPRP	0.184
RRIRHRPPRLPRPRPRPTQLPRP	0.278
RRIRLRPPRLPRPRPRPSQVPRP	-0.573
RRIRVRPPRLPRPRPRPRSLPRP	-0.116
RRIRRRPPRLPRPRPRPWHDPRP	0.0389
RRIRIRPPRLPRPRPRPNCWPRP	0.0114
